Measurements: US20190062420A1 (Janssen / Centocor, published 2019)

T1: human FcγRIIA (NM_021642) expressed on cells (human, UniProt P12318 36-317)
T1 construct: Transiently expressed on Expi293F cells; also used here for FcγRIIA on human macrophages in the ADCP assay; also called Expi293F FcγRIIA; HEK293F cells expressing FcγRIIA
T1 sequence: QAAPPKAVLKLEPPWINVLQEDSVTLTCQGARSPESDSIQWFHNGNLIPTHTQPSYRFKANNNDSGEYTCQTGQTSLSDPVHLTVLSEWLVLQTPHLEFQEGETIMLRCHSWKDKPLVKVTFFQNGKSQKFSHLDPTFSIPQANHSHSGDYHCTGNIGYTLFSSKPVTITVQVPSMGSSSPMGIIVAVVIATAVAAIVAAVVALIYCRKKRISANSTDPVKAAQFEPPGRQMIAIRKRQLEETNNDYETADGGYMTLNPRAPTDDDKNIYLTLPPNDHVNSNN

T2: human FcγRIIB (NM_004001) expressed on cells (human, UniProt P31994 43-310)
T2 construct: Transiently expressed on Expi293F cells; also called Expi293F FcγRIIB; HEK293F cells expressing FcγRIIB
T2 sequence: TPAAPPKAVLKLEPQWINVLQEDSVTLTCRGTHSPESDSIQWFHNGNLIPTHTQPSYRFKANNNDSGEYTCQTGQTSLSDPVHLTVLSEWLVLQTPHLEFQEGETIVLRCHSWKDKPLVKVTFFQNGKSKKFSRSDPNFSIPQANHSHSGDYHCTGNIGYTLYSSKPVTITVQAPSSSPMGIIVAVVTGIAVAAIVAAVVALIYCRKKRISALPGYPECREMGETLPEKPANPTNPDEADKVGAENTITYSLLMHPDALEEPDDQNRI

T3: human OX40 expressed on HEK-Blue: OX40 cells (human, UniProt P43489 29-277)
T3 construct: also called CD134
T3 sequence: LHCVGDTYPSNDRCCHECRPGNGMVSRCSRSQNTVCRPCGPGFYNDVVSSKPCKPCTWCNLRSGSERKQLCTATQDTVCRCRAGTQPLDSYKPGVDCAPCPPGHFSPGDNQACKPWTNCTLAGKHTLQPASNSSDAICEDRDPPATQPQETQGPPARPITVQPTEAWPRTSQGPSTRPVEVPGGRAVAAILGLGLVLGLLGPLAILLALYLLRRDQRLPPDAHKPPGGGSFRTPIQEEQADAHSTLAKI

T4: FcγRIIB protein (human, UniProt P31994 43-217, biotinylated (SureLINK Biotin Kit) in the ELISA of Example 1)
T4 sequence: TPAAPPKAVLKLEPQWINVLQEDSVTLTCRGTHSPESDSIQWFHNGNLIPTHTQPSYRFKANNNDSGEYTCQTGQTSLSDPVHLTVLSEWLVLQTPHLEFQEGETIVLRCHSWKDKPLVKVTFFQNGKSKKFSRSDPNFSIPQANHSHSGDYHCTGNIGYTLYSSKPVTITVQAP

T5: FcγRIIA protein (human, UniProt P12318 36-217, biotinylated (SureLINK Biotin Kit) in the ELISA of Example 1)
T5 sequence: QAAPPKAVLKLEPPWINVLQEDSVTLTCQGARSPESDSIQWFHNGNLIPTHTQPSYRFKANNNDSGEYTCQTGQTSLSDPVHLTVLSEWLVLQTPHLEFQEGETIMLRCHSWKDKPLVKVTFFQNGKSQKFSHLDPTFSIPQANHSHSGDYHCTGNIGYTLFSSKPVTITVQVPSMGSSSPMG

B1: OX40SF2IgG1_R2BS29_HC-C (bispecific antibody)
heavy: not shown
light: DIQMTQSPSSLSASVGDRVTITCKASQDVGAAVAWYQQKPGKAPKLLIYWASTRHTGVPSRFSGSGSGTDFTLTISSLQPEDFATYYCQQYINYPLTFGGGTKVEIKRTVAAPSVFIFPPSDEQLKSGTASVVCLLNNFYPREAKVQWKVDNALQSGNSQESVTEQDSKDSTYSLSSTLTLSKADYEKHKVYACEVTHQGLSSPVTKSFNRGEC
notes: mAbtyrin: wild-type IgG1 OX40SF2 with linker and R2BS29 FN3 domain at the C-terminus of the heavy chain; also called mAbtyrin
B2: OX40SF2IgG1_R2BS29_LC-C (bispecific antibody)
heavy: not shown
light: DIQMTQSPSSLSASVGDRVTITCKASQDVGAAVAWYQQKPGKAPKLLIYWASTRHTGVPSRFSGSGSGTDFTLTISSLQPEDFATYYCQQYINYPLTFGGGTKVEIKRTVAAPSVFIFPPSDEQLKSGTASVVCLLNNFYPREAKVQWKVDNALQSGNSQESVTEQDSKDSTYSLSSTLTLSKADYEKHKVYACEVTHQGLSSPVTKSFNRGECGGGGSGGGGSGGGGSGGGGSMLPAPKNLVVSRVTEDSARLSWTAPDAAFDSFPIYYWEYRVGGEAIVLTVPGSERSYDLTGLKPGTEYFVYINGVKGGEESRPLSAIFTT
notes: mAbtyrin: wild-type IgG1 OX40SF2 with linker and R2BS29 FN3 domain at the C-terminus of the light chain; also called mAbtyrin
B3: OX40SF2IgG2sigma_R2BS29_LC-N (bispecific antibody)
heavy: QVQLVQSGAEVKKPGSSVKVSCKASGYTFKDYTMHWVRQAPGQGLEWIGGIYPNNGGSTYNQNFKDRVTLTADKSTSTAYMELSSLRSEDTAVYYCARMGYHGPHLDFDVWGQGTTVTVSSASTKGPSVFPLAPCSRSTSESTAALGCLVKDYFPEPVTVSWNSGALTSGVHTFPAVLQSSGLYSLSSVVTVPSSNFGTQTYTCNVDHKPSNTKVDKTVERKCCVECPPCPAPPAAASSVFLFPPKPKDTLMISRTPEVTCVVVDVSAEDPEVQFNWYVDGVEVHNAKTKPREEQFNSTFRVVSVLTVLHQDWLNGKEYKCKVSNKGLPSSIEKTISKTKGQPREPQVYTLPPSREEMTKNQVSLTCLVKGFYPSDIAVEWESNGQPENNYKTTPPMLDSDGSFFLYSKLTVDKSRWQQGNVFSCSVMHEALHNHYTQKSLSLSPGK
light: LPAPKNLVVSRVTEDSARLSWTAPDAAFDSFPIYYWEYRVGGEAIVLTVPGSERSYDLTGLKPGTEYFVYINGVKGGEESRPLSAIFTTGGGGSGGGGSGGGGSGGGGSDIQMTQSPSSLSASVGDRVTITCKASQDVGAAVAWYQQKPGKAPKLLIYWASTRHTGVPSRFSGSGSGTDFTLTISSLQPEDFATYYCQQYINYPLTFGGGTKVEIKRTVAAPSVFIFPPSDEQLKSGTASVVCLLNNFYPREAKVQWKVDNALQSGNSQESVTEQDSKDSTYSLSSTLTLSKADYEKHKVYACEVTHQGLSSPVTKSFNRGEC
notes: mAbtyrin: R2BS29 FN3 domain and linker at the N-terminus of the light chain of OX40SF2IgG2sigma; also called mAbtyrin

What follows are binders tested against T1, human FcγRIIA (NM_021642) expressed on … (assay: flow cytometry; Expi293F cells transfected with FcγRIIA).
Description: (§1) Plasmids expressing cDNAs encoding human FcγRI (NM_000566) (SEQ ID NO: 44), FcγRIIA (NM_021642) (SEQ ID NO: 2), FcγRIIB (NM_004001) (SEQ ID NO: 3), and FcγRIIIA (NM_000569) (SEQ ID NO: 45) (Origene) were transiently transfected into Expi293F cells by ExpiFectamine293 transfection kit (Life Technologies). Flow cytometry assays were performed 48 h after transfection.
(§2) 2×10⁵ cells per well were seeded in 96-well plate and blocked in BSA Stain Buffer (BD Biosciences, San Jose, USA) for 30 min at 4° C. Cells were incubated with test mAbtyrin on ice for 1.5 h at 4° C. After being washed twice with BSA stain buffer, the cells were incubated with R-PE labeled anti-human or anti-mouse IgG secondary antibody (Jackson Immunoresearch Laboratories) for 45 min at 4° C. The cells were washed twice in stain buffer and then resuspended in 150 μL of Stain Buffer containing 1:200 diluted DRAQ7 live/dead stain (Cell Signaling Technology, Danvers, USA). PE and DRAQ7 signals of the stained cells were detected by Miltenyi MACSQuant flow cytometer (Miltenyi Biotec, Auburn, USA) using B2 and B4 channel respectively. Live cells were gated on DRAQ7 exclusion and the geometric mean fluorescence signals were determined for at least 10,000 live events collected. FlowJo software (Tree Star) was used for analysis. Data was plotted as the logarithm of antibody concentration versus mean fluorescence signals. Nonlinear regression analysis was performed by GraphPad Prism 6 (GraphPad Software, Inc.) and EC₅₀ values were calculated.

| EC50 [µg/mL] | Binder |
| --- | --- |
| 0.063 | B1 |
| 0.066 | B2 |
| 0.046 | B3 |

Each binder was assayed against T2, human FcγRIIB (NM_004001) expressed on … (assay: flow cytometry; Expi293F cells transfected with FcγRIIB).
Description: as §1, §2

| EC50 [µg/mL] | Binder |
| --- | --- |
| 0.968 | B1 |
| 1 | B2 |
| 1.02 | B3 |

These binders were tested against T2, human FcγRIIB (NM_004001) expressed on … (assay: flow cytometry; Raji cells (express predominantly FcγRIIB)).
Description: as §2
Raji cell is a cell line derived from B cells that express predominantly FcγRIIB. The binding of mAbtyrins on Raji cells were investigated by flow cytometry assay described for testing mAbtyrin binding to FcγR. Binding of the mAbtyrins were detected by flow cytometry using a PE-labeled Goat F(ab′) against Human IgG(γ).

| EC50 [µg/mL] | Binder |
| --- | --- |
| 1.27 | B1 |
| 3.3 | B2 |
| 3.37 | B3 |

The binders below were run against T3, human OX40 expressed on HEK-Blue: OX40 … (assay: flow cytometry; HEK-Blue: OX40 cells).
In short: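 HEK-Blue Null 1 cells stably transfected with human OX40 were blocked, then incubated with mAbtyrin for 1.5 h at 4 °C. Binding was detected with a PE anti-human IgG F(ab′)₂ secondary, gating on DRAQ7-excluding live cells and taking geometric mean fluorescence. EC50 came from nonlinear regression versus log antibody concentration.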

| EC50 [µg/mL] | Binder |
| --- | --- |
| 0.193 | B1 |
| 0.111 | B2 |
| 0.431 | B3 |

These binders were tested against T6, human FcγRI (NM_000566) expressed on cells (human, UniProt P12314 16-374) (assay: flow cytometry; Expi293F cells transfected with FcγRI).
T6 construct: Transiently expressed on Expi293F cells
Description: as §1, §2

T6 sequence (P12314 16-374 limits assumed): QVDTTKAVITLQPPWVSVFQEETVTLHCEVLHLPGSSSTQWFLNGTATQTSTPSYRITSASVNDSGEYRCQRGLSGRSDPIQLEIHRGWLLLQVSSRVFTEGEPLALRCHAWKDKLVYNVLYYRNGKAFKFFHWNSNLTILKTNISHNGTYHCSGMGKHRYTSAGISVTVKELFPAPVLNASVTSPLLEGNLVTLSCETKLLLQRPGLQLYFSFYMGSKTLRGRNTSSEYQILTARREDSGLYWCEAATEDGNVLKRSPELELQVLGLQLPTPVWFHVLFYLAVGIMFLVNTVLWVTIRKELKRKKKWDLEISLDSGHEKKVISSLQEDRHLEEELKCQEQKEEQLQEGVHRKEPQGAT

| EC50 [µg/mL] | Binder |
| --- | --- |
| 0.586 | B1 |
| 0.397 | B2 |
| > 10 | B3 |

Each binder was assayed against T4, FcγRIIB protein (assay: cell-based or functional assay).

| IFNγ production by activated CD4 T cells, plate-coated FcγRIIb [pg/mL] | TNFα production by activated CD4 T cells, plate-coated FcγRIIb [pg/mL] | Binder |
| --- | --- | --- |
| 1370 | 250 | B1 |
| 177 | 37 | B2 |
| 72 | 29 | B3 |

The binders below were run against T5, FcγRIIA protein (assay: cell-based or functional assay).

| IFNγ production by activated CD4 T cells, plate-coated FcγRIIA [pg/mL] | TNFα production by activated CD4 T cells, plate-coated FcγRIIA [pg/mL] | Binder |
| --- | --- | --- |
| 1760 | 335 | B1 |
| 125 | 33 | B2 |
| 103 | 29 | B3 |

The binders below were run against T2, human FcγRIIB (NM_004001) expressed on … (assay: cell-based or functional assay).

| % activity at 1 µg/ml with Raji cells (HEK-Blue: OX40 NF-κB reporter) [%] | Binder |
| --- | --- |
| 90 | B1 |
| 76 | B2 |
| 11 | B3 |

What follows are binders tested against T7, human FcγRIIIA (NM_000569) expressed on cells (human, UniProt P08637 17-254) (assay: flow cytometry; Expi293F cells transfected with FcγRIIIA).
T7 construct: Transiently expressed on Expi293F cells; also used here for FcγRIIIA on the engineered effector cells of the ADCC reporter bioassay (Promega); also called FcγIIIA
Description: as §1, §2

T7 sequence (P08637 17-254 limits assumed): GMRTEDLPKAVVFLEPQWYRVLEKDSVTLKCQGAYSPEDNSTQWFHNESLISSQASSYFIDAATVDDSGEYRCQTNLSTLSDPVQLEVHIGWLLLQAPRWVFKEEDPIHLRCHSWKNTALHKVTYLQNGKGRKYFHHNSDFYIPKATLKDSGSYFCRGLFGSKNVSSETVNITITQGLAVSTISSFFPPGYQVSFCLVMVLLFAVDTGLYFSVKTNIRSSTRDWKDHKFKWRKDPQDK

| EC50 [µg/mL] | Binder |
| --- | --- |
| 0.448 | B1 |
| 0.585 | B2 |
| > 10 | B3 |

These binders were tested against T7, human FcγRIIIA (NM_000569) expressed on … (assay: cell-based or functional assay).

| ADCC (fold activation) at 1 µg/ml [fold] | Binder |
| --- | --- |
| 9 | B1 |
| 9 | B2 |
| 1 | B3 |

What follows are binders tested against T1, human FcγRIIA (NM_021642) expressed on … (assay: cell-based or functional assay).

| ADCP EC50 [µg/mL] | Binder |
| --- | --- |
| 0.0318 | B1 |
| 0.0151 | B2 |
| 0.0089 | B3 |
